In patent US20240033359A1 (Takeda / Millennium, published 2024):

Tests used:
[1] = target: T1, human guanylyl cyclase C (GCC), as used in the Octet binding assay (human, UniProt P25092 24-430, limits assumed); assay: Octet BLI, 1:1 model
T1 construct: also called STAR; GUC2C
Description: Single domain heavy chain antibodies (VH) were generated that specifically target human GCC (e.g., anti-GCC binders provided in Tables 1-3). […] Binding kinetics were determined using an Octet binding assay. These were measured in real-time bio-layer interferometer based biosensor Octet (ForteBio). All the binding studies were performed in HBS-ET Octet kinetics buffer. Biosensors were always washed in Octet kinetics buffer in between different steps. A seven point, two-fold dilution series of each VH was made. The contact time for each of the association steps was 300 seconds and the dissociation step was varied between 400-600 seconds. Kinetic association (ka) and dissociation (kd) rate constants were determined by processing and fitting the data to a 1:1 binding model using ForteBio Analysis software.

GCC on CT26 cells = target: T2, GCC on CT26 cells; assay: flow cytometry on CT26 cells, dose response
T2 construct: whole, on cells; That the target is GCC is inferred from this context
Description: Binding of single domain antibodies to CT26 cells was measured using flow cytometry. CT26 cells were incubated with serially diluted VH and fluorescence was measured by flow cytometry. Anti-GCC VH antibodies were confirmed for binding to CT26 cells by a FACS dose response assay to obtain an on cell binding EC50 (nM) as shown in Table 4.

T2 sequence (Q3UWA6 whole entry, the tested form may be a part): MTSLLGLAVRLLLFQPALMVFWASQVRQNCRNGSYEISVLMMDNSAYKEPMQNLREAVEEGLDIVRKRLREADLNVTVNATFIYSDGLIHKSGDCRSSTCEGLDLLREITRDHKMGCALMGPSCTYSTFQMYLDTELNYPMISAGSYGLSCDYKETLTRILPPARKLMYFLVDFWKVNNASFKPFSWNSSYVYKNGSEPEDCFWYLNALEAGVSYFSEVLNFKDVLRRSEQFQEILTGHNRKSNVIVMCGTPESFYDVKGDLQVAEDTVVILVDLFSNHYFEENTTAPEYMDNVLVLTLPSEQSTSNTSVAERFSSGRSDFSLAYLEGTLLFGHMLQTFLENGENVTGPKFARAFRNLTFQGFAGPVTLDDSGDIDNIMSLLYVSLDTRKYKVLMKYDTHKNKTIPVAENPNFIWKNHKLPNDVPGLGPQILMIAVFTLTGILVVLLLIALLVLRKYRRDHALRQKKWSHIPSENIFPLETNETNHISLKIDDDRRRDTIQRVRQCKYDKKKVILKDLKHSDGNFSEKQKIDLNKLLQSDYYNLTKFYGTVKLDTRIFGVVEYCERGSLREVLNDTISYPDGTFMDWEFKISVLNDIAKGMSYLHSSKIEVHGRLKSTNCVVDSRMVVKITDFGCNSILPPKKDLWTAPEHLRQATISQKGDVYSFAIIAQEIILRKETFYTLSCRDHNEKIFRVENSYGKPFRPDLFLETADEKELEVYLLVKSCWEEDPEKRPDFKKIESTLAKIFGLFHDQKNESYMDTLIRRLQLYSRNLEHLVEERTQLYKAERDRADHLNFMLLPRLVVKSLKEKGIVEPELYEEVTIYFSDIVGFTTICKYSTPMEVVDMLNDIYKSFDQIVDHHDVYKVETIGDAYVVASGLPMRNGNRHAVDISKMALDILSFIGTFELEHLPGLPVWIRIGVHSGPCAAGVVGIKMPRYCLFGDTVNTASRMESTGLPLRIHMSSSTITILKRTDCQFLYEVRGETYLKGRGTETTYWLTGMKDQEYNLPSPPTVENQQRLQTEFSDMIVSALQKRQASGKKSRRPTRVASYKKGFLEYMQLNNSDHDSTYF
T1 sequence (P25092 24-430 limits assumed): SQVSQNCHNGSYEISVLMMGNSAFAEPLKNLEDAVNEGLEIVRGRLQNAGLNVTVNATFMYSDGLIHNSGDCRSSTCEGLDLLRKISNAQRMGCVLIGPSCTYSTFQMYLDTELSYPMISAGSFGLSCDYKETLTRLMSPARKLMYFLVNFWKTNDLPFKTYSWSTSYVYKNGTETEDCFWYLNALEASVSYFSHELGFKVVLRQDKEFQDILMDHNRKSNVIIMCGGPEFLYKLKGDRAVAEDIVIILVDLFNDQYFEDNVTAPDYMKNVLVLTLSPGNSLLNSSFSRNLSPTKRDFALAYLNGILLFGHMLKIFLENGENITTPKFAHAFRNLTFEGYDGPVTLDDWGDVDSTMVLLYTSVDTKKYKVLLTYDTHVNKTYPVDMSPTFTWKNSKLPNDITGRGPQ

Kd [1] | koff [1] | EC50 (GCC on CT26 cells) | Binder
9.54 nM | 0.00185 s⁻¹ | – | V51 anti-GCC single domain VH antibody (VHH, Human heavy chain variable single domain antibody (VH only), tested as recombinant purified VH; No tags are stated) VHH: EVQLVESGGGLVQPGGSLRLSCAASGFTFSRYWMTWVRQAPGKGLEWVAKIRHDGGEKYYADSVKGRFTISRDNAKNSLYLQMNSLRAEDTAVYYCTRDYNKDYWGQGTLVTVSS
105 nM | 0.0035 s⁻¹ | – | V36 anti-GCC single domain VH antibody (VHH, Human heavy chain variable single domain antibody (VH only), tested as recombinant purified VH; No tags are stated) VHH: EVQLVESGGGLAQPGGSLRLSCAASGFTFSRYWMTWVRQAPGGRLEWVAKIKYDGSEKYYADSVKGRFTISRDNAKNSLYLQMDSLRAEDTAVYYCTRDYNKDYWGQGTLVTVSS
1.38 nM | 0.000341 s⁻¹ | 1.01 nM | V48 anti-GCC single domain VH antibody (VHH, Human heavy chain variable single domain antibody (VH only), tested as recombinant purified VH; No tags are stated) VHH: EVQLVESGGGLVQPGGSLRLTCAASGFTFSRYWMTWVRQAPGKGLEWVAKIRHDGGEKYYPDSVKGRFTVSRDNAKNSLYLQMDNLRAEDTAMYYCTRDYNKDLWGQGTLVTVSS
7.71 nM | 0.000719 s⁻¹ | 1.52 nM | V5 anti-GCC single domain VH antibody (VHH, Human heavy chain variable single domain antibody (VH only), tested as recombinant purified VH; No tags are stated) VHH: QVQLVESGGGLVQPGGSLRLSCTASGFTFSRYWMSWVRQAPGKGLEWVAKIRHDGGEKYYVDSVKGRFTISRDNAKNSLYLQMNSLRAEDTAVYYCATDYTRDVWGQGTAVTVSS
0.329 nM | 0.000208 s⁻¹ | 0.72 nM | V1 anti-GCC single domain VH antibody (VHH, Human heavy chain variable single domain antibody (VH only, no light chain), tested as recombinant purified VH; also called V1 VH) VHH: QVQLQESGPGLVKPSETLSLTCTVSGASISHYYWSWFRQPAGKGLEWIGRIYPSGSTSYNPSLKSRVAMSVDTPKNQFSLNLSSVTAADTAVYYCARDRSTGWSEWNSDLWGRGTLVTVSS
